Data: article PMC7820495

T1: GST-SVIP (Drosophila SVIP, CG32039), Q8IQC6
T1 chain: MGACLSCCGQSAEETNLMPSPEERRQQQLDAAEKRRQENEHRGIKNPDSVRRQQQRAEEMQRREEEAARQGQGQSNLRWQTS


Molecular target: T1, GST-SVIP (Drosophila SVIP, CG32039), …
Assay: in vitro binding titration assay
Details: chain shown with the change;; parent: 0.70 uM

Kd [nM]	Binder
600	MBP-VCP^N-D1 (Drosophila VCP, N-terminal and first D1 ATPase domain), Q7KN62 A436S (protein) MADSKGEDLATAILKRKDRPNRLIVEEAQNDDNSVVSLSQAKMDELQLFRGDTVILKGKRRKETVCIVLSDDTCPDEKIRMNRVVRNNLCVHLSDVVSVQSCPDVKYGKRVRILPIDESTEGVTGNLFEIYLKPYFLEAYRPIHMGDNFIVRAAMRPIEFKVVLTDPEPYCIVAPETVIFCDGDPIKREEEEESLNAVGYDDIGGCRKQLAQIKEMVELPLRHPSLFKAIGVKPPRGILMYGPPGTGKTLIARAVANETGAFFFLINGPEIMSKLAGESESNLRKAFEEAEKNSPAIIFIDEIDAIAPKRDKTHGEVERRIVSQLLTLMDGMKKSSHLIVMAATNRPNSIDPALRRFGRFDREIDIGIPDATGRLEVLRIHTKNMKLHDDVDLEQIAAESHGHVGADLASLCSEAALQQIREKMDLIDLEDDKIDSEVLASLAVTMENFRYAMTKSSPSALRETVVEVPNTTWTDIGGLESVKKELQELVQYPVEHPDKFLKFGMQPSRGVLFYGPPGCGKTLLAKAIANECQANFISVKGPELLTMWFGESEANVRDIFDKARSAAPCVLFFDELDSIAKARGGNVGDAGGAADRVINQILTEMDGMGAKKNVFIIGATNRPDIIDPAILRPGRLDQLIYIPLPDDKSREAILKANLRKSPLAKEVDLTYIAKVTQGFSGADLTEICQRACKLAIRQAIEAEIRREKERAENQNSAMDMDEDDPVPEITSAHFEEAMKFARRSVSDNDIRKYEMFAQTLQQSRGFGQNFRFPGQTGNTSGSGNNLPVNSPGDNGDDDLYS
1500	MBP-VCP^N-D1 (Drosophila VCP, N-terminal and first D1 ATPase domain), Q7KN62 R188Q (protein) MADSKGEDLATAILKRKDRPNRLIVEEAQNDDNSVVSLSQAKMDELQLFRGDTVILKGKRRKETVCIVLSDDTCPDEKIRMNRVVRNNLCVHLSDVVSVQSCPDVKYGKRVRILPIDESTEGVTGNLFEIYLKPYFLEAYRPIHMGDNFIVRAAMRPIEFKVVLTDPEPYCIVAPETVIFCDGDPIKQEEEEESLNAVGYDDIGGCRKQLAQIKEMVELPLRHPSLFKAIGVKPPRGILMYGPPGTGKTLIARAVANETGAFFFLINGPEIMSKLAGESESNLRKAFEEAEKNSPAIIFIDEIDAIAPKRDKTHGEVERRIVSQLLTLMDGMKKSSHLIVMAATNRPNSIDPALRRFGRFDREIDIGIPDATGRLEVLRIHTKNMKLHDDVDLEQIAAESHGHVGADLASLCSEAALQQIREKMDLIDLEDDKIDAEVLASLAVTMENFRYAMTKSSPSALRETVVEVPNTTWTDIGGLESVKKELQELVQYPVEHPDKFLKFGMQPSRGVLFYGPPGCGKTLLAKAIANECQANFISVKGPELLTMWFGESEANVRDIFDKARSAAPCVLFFDELDSIAKARGGNVGDAGGAADRVINQILTEMDGMGAKKNVFIIGATNRPDIIDPAILRPGRLDQLIYIPLPDDKSREAILKANLRKSPLAKEVDLTYIAKVTQGFSGADLTEICQRACKLAIRQAIEAEIRREKERAENQNSAMDMDEDDPVPEITSAHFEEAMKFARRSVSDNDIRKYEMFAQTLQQSRGFGQNFRFPGQTGNTSGSGNNLPVNSPGDNGDDDLYS

Continued, binder first:

Binder	Kd [nM]
MBP-VCP^N-D1 (Drosophila VCP, N-terminal and first D1 ATPase domain), Q7KN62 P134L (protein) MADSKGEDLATAILKRKDRPNRLIVEEAQNDDNSVVSLSQAKMDELQLFRGDTVILKGKRRKETVCIVLSDDTCPDEKIRMNRVVRNNLCVHLSDVVSVQSCPDVKYGKRVRILPIDESTEGVTGNLFEIYLKLYFLEAYRPIHMGDNFIVRAAMRPIEFKVVLTDPEPYCIVAPETVIFCDGDPIKREEEEESLNAVGYDDIGGCRKQLAQIKEMVELPLRHPSLFKAIGVKPPRGILMYGPPGTGKTLIARAVANETGAFFFLINGPEIMSKLAGESESNLRKAFEEAEKNSPAIIFIDEIDAIAPKRDKTHGEVERRIVSQLLTLMDGMKKSSHLIVMAATNRPNSIDPALRRFGRFDREIDIGIPDATGRLEVLRIHTKNMKLHDDVDLEQIAAESHGHVGADLASLCSEAALQQIREKMDLIDLEDDKIDAEVLASLAVTMENFRYAMTKSSPSALRETVVEVPNTTWTDIGGLESVKKELQELVQYPVEHPDKFLKFGMQPSRGVLFYGPPGCGKTLLAKAIANECQANFISVKGPELLTMWFGESEANVRDIFDKARSAAPCVLFFDELDSIAKARGGNVGDAGGAADRVINQILTEMDGMGAKKNVFIIGATNRPDIIDPAILRPGRLDQLIYIPLPDDKSREAILKANLRKSPLAKEVDLTYIAKVTQGFSGADLTEICQRACKLAIRQAIEAEIRREKERAENQNSAMDMDEDDPVPEITSAHFEEAMKFARRSVSDNDIRKYEMFAQTLQQSRGFGQNFRFPGQTGNTSGSGNNLPVNSPGDNGDDDLYS	21600
MBP-VCP^N-D1 (Drosophila VCP, N-terminal and first D1 ATPase domain), Q7KN62 N384H (protein) MADSKGEDLATAILKRKDRPNRLIVEEAQNDDNSVVSLSQAKMDELQLFRGDTVILKGKRRKETVCIVLSDDTCPDEKIRMNRVVRNNLCVHLSDVVSVQSCPDVKYGKRVRILPIDESTEGVTGNLFEIYLKPYFLEAYRPIHMGDNFIVRAAMRPIEFKVVLTDPEPYCIVAPETVIFCDGDPIKREEEEESLNAVGYDDIGGCRKQLAQIKEMVELPLRHPSLFKAIGVKPPRGILMYGPPGTGKTLIARAVANETGAFFFLINGPEIMSKLAGESESNLRKAFEEAEKNSPAIIFIDEIDAIAPKRDKTHGEVERRIVSQLLTLMDGMKKSSHLIVMAATNRPNSIDPALRRFGRFDREIDIGIPDATGRLEVLRIHTKHMKLHDDVDLEQIAAESHGHVGADLASLCSEAALQQIREKMDLIDLEDDKIDAEVLASLAVTMENFRYAMTKSSPSALRETVVEVPNTTWTDIGGLESVKKELQELVQYPVEHPDKFLKFGMQPSRGVLFYGPPGCGKTLLAKAIANECQANFISVKGPELLTMWFGESEANVRDIFDKARSAAPCVLFFDELDSIAKARGGNVGDAGGAADRVINQILTEMDGMGAKKNVFIIGATNRPDIIDPAILRPGRLDQLIYIPLPDDKSREAILKANLRKSPLAKEVDLTYIAKVTQGFSGADLTEICQRACKLAIRQAIEAEIRREKERAENQNSAMDMDEDDPVPEITSAHFEEAMKFARRSVSDNDIRKYEMFAQTLQQSRGFGQNFRFPGQTGNTSGSGNNLPVNSPGDNGDDDLYS	1160
MBP-VCP^N-D1 (Drosophila VCP, N-terminal and first D1 ATPase domain), Q7KN62 L195W (protein) MADSKGEDLATAILKRKDRPNRLIVEEAQNDDNSVVSLSQAKMDELQLFRGDTVILKGKRRKETVCIVLSDDTCPDEKIRMNRVVRNNLCVHLSDVVSVQSCPDVKYGKRVRILPIDESTEGVTGNLFEIYLKPYFLEAYRPIHMGDNFIVRAAMRPIEFKVVLTDPEPYCIVAPETVIFCDGDPIKREEEEESWNAVGYDDIGGCRKQLAQIKEMVELPLRHPSLFKAIGVKPPRGILMYGPPGTGKTLIARAVANETGAFFFLINGPEIMSKLAGESESNLRKAFEEAEKNSPAIIFIDEIDAIAPKRDKTHGEVERRIVSQLLTLMDGMKKSSHLIVMAATNRPNSIDPALRRFGRFDREIDIGIPDATGRLEVLRIHTKNMKLHDDVDLEQIAAESHGHVGADLASLCSEAALQQIREKMDLIDLEDDKIDAEVLASLAVTMENFRYAMTKSSPSALRETVVEVPNTTWTDIGGLESVKKELQELVQYPVEHPDKFLKFGMQPSRGVLFYGPPGCGKTLLAKAIANECQANFISVKGPELLTMWFGESEANVRDIFDKARSAAPCVLFFDELDSIAKARGGNVGDAGGAADRVINQILTEMDGMGAKKNVFIIGATNRPDIIDPAILRPGRLDQLIYIPLPDDKSREAILKANLRKSPLAKEVDLTYIAKVTQGFSGADLTEICQRACKLAIRQAIEAEIRREKERAENQNSAMDMDEDDPVPEITSAHFEEAMKFARRSVSDNDIRKYEMFAQTLQQSRGFGQNFRFPGQTGNTSGSGNNLPVNSPGDNGDDDLYS	600
MBP-VCP^N-D1 (Drosophila VCP, N-terminal and first D1 ATPase domain), Q7KN62 A154R (protein) MADSKGEDLATAILKRKDRPNRLIVEEAQNDDNSVVSLSQAKMDELQLFRGDTVILKGKRRKETVCIVLSDDTCPDEKIRMNRVVRNNLCVHLSDVVSVQSCPDVKYGKRVRILPIDESTEGVTGNLFEIYLKPYFLEAYRPIHMGDNFIVRARMRPIEFKVVLTDPEPYCIVAPETVIFCDGDPIKREEEEESLNAVGYDDIGGCRKQLAQIKEMVELPLRHPSLFKAIGVKPPRGILMYGPPGTGKTLIARAVANETGAFFFLINGPEIMSKLAGESESNLRKAFEEAEKNSPAIIFIDEIDAIAPKRDKTHGEVERRIVSQLLTLMDGMKKSSHLIVMAATNRPNSIDPALRRFGRFDREIDIGIPDATGRLEVLRIHTKNMKLHDDVDLEQIAAESHGHVGADLASLCSEAALQQIREKMDLIDLEDDKIDAEVLASLAVTMENFRYAMTKSSPSALRETVVEVPNTTWTDIGGLESVKKELQELVQYPVEHPDKFLKFGMQPSRGVLFYGPPGCGKTLLAKAIANECQANFISVKGPELLTMWFGESEANVRDIFDKARSAAPCVLFFDELDSIAKARGGNVGDAGGAADRVINQILTEMDGMGAKKNVFIIGATNRPDIIDPAILRPGRLDQLIYIPLPDDKSREAILKANLRKSPLAKEVDLTYIAKVTQGFSGADLTEICQRACKLAIRQAIEAEIRREKERAENQNSAMDMDEDDPVPEITSAHFEEAMKFARRSVSDNDIRKYEMFAQTLQQSRGFGQNFRFPGQTGNTSGSGNNLPVNSPGDNGDDDLYS	3610
MBP-VCP^N-D1 (Drosophila VCP, N-terminal and first D1 ATPase domain), Q7KN62 R156C (protein) MADSKGEDLATAILKRKDRPNRLIVEEAQNDDNSVVSLSQAKMDELQLFRGDTVILKGKRRKETVCIVLSDDTCPDEKIRMNRVVRNNLCVHLSDVVSVQSCPDVKYGKRVRILPIDESTEGVTGNLFEIYLKPYFLEAYRPIHMGDNFIVRAAMCPIEFKVVLTDPEPYCIVAPETVIFCDGDPIKREEEEESLNAVGYDDIGGCRKQLAQIKEMVELPLRHPSLFKAIGVKPPRGILMYGPPGTGKTLIARAVANETGAFFFLINGPEIMSKLAGESESNLRKAFEEAEKNSPAIIFIDEIDAIAPKRDKTHGEVERRIVSQLLTLMDGMKKSSHLIVMAATNRPNSIDPALRRFGRFDREIDIGIPDATGRLEVLRIHTKNMKLHDDVDLEQIAAESHGHVGADLASLCSEAALQQIREKMDLIDLEDDKIDAEVLASLAVTMENFRYAMTKSSPSALRETVVEVPNTTWTDIGGLESVKKELQELVQYPVEHPDKFLKFGMQPSRGVLFYGPPGCGKTLLAKAIANECQANFISVKGPELLTMWFGESEANVRDIFDKARSAAPCVLFFDELDSIAKARGGNVGDAGGAADRVINQILTEMDGMGAKKNVFIIGATNRPDIIDPAILRPGRLDQLIYIPLPDDKSREAILKANLRKSPLAKEVDLTYIAKVTQGFSGADLTEICQRACKLAIRQAIEAEIRREKERAENQNSAMDMDEDDPVPEITSAHFEEAMKFARRSVSDNDIRKYEMFAQTLQQSRGFGQNFRFPGQTGNTSGSGNNLPVNSPGDNGDDDLYS	1770
